According to patent publication US20200207841A1 (MIT, published 2020):
Like-named read-outs stand apart in the source and are kept apart here.

Columns and labels:
[1] = target: T1, EDIII-DV3 (Dengue virus serotype 3 (DV3), UniProt Q6YMS3 579-671); experiment: SPR
T1 construct: also called EDIII of DV3; EDIII-DVIII

[2] = target: T2, EDIII-DV2 (Dengue virus serotype 2 (DV2), UniProt P14337 581-673); experiment: SPR
T2 construct: also called EDIII of DV2; EDIII-DVII

[3] = target: T3, EDIII-DV1 (Dengue virus serotype 1 (DV1), UniProt P17763 581-673); experiment: SPR
T3 construct: also called EDIII of DV1; EDIII-DVI

[4] = target: T1, EDIII-DV3; experiment: SPR; remark: listed apart in the source
[5] = target: T2, EDIII-DV2; experiment: SPR; remark: listed apart in the source
[6] = target: T3, EDIII-DV1; experiment: SPR; remark: listed apart in the source
[7] = target: T1, EDIII-DV3
[8] = target: T2, EDIII-DV2
[9] = target: T3, EDIII-DV1
[10] = target: T4, DV2 (Dengue virus serotype 2, virus used in FRNT) (Dengue virus serotype 2 (DV2)); experiment: cell-based or functional assay
[11] = target: T5, DV1 (Dengue virus serotype 1, virus used in FRNT) (Dengue virus serotype 1 (DV1)); experiment: cell-based or functional assay
[12] = target: T6, DV3 (Dengue virus serotype 3, virus used in FRNT) (Dengue virus serotype 3 (DV3)); experiment: cell-based or functional assay
[13] = target: T1, EDIII-DV3; experiment: competition ELISA
[14] = target: T2, EDIII-DV2; experiment: competition ELISA
[15] = target: T3, EDIII-DV1; experiment: competition ELISA
[16] = target: T7, EDIII-DV4 (Dengue virus serotype 4 (DV4), UniProt P09866 580-672); experiment: calculated from KD, relative to 4E11 WT
T7 construct: also called EDIII of DV4; DV4 EDIII

[17] = target: T7, EDIII-DV4
[18] = target: T7, EDIII-DV4; experiment: calculated from KD, ΔG = RTln(KD) at 25° C.
[19] = target: T7, EDIII-DV4; experiment: competition ELISA
[20] = target: T2, EDIII-DV2; remark: listed apart in the source
[21] = target: T3, EDIII-DV1; remark: listed apart in the source
[22] = target: T4, DV2 (Dengue virus serotype 2, virus …); experiment: cell-based or functional assay; remark: listed apart in the source
[23] = target: T5, DV1 (Dengue virus serotype 1, virus …); experiment: cell-based or functional assay; remark: listed apart in the source
[24] = target: DV4 (Dengue virus serotype 4, virus used in FRNT) (Dengue virus serotype 4 (DV4)); experiment: cell-based or functional assay
[25] = target: T6, DV3 (Dengue virus serotype 3, virus …); experiment: cell-based or functional assay; remark: listed apart in the source
[26] = target: T1, EDIII-DV3; remark: listed apart in the source
[27] = target: T2, EDIII-DV2; remark: listed apart in the source
[28] = target: T3, EDIII-DV1; remark: listed apart in the source
[29] = target: T1, EDIII-DV3; remark: listed apart in the source

B1: 4E11 WT (antibody, V domains shown)
VH: VKLLEQSGAELVKPGASVRLSCTASGFNIKDTYMSWVKQRPEQGLEWIGRIDPANGDTKYDPKFQGKATITADTSSNTAYLHLSSLTSGDTAVYYCSRGWEGFAYWGQGTLVTVSA
VL: ELVMTQTPASLAVSLGQRATISCRASENVDRYGNSFMHWYQQKAGQPPKLLIYRASNLESGIPARFSGSGSRTDFTLTINPVEADDVATYFCQRSNEVPWTFGGGTKLEIKR
notes: also called wt 4E11; mAb 4E11
For B1, the koff [1] was 0.0102 s⁻¹, the kon [1] was 1.34e+06 M⁻¹ s⁻¹ and the kon [2] was 1.98e+06 M⁻¹ s⁻¹. It also gave a koff [3] of 0.000551 s⁻¹, a kon [3] of 1.11e+06 M⁻¹ s⁻¹ and a Kd [4] of 7.58 nM. It also gave a Kd [5] of 6.2 nM, a Kd [6] of 0.5 nM and a Kd [7] of 21.8 nM. For the same binder, the Kd [8] was 5.2 nM, the Kd [9] was 0.328 nM and the “IC50 (read off the curve): neutralisation, relative infectivity against [4E11]” value (from here on “IC50 … relative infectivity against [4E11]”) [10] was about 0.03 µg/mL. The “IC50 … relative infectivity against [4E11]” value [11] was about 0.06 µg/mL, the “IC50 … relative infectivity against [4E11]” value [12] was about 0.5 µg/mL and the Kd [13] was 21.8 nM. For the same binder, the Kd [14] was 5.2 nM and the Kd [15] was 0.328 nM.

B2: 4E11 VH-A55E (antibody, V domains shown)
VH: VKLLEQSGAELVKPGASVRLSCTASGFNIKDTYMSWVKQRPEQGLEWIGRIDPENGDTKYDPKFQGKATITADTSSNTAYLHLSSLTSGDTAVYYCSRGWEGFAYWGQGTLVTVSA
VL: ELVMTQTPASLAVSLGQRATISCRASENVDRYGNSFMHWYQQKAGQPPKLLIYRASNLESGIPARFSGSGSRTDFTLTINPVEADDVATYFCQRSNEVPWTFGGGTKLEIKR
B2 was tested, and the “ΔΔG (ΔGmutant - ΔGWT)” value [16] was -1.31 kcal/mol, the Kd [17] was 4440 nM and the ΔG [18] was -7.29 kcal/mol. For the same binder, the “fold affinity enhancement relative to 4E11 WT” value [19] was 9.2 fold.

B3: 4E5A (antibody, V domains shown)
VH: VKLLEQSGAELVKPGASVRLSCTASGFNIKDTYMSWVKQRPEQGLEWIGRIDPENGDTKYDPKFQGKATITADTSSNTAYLHLSSLTSGDTAVYYCSRGWEGFAYWGQGTLVTVSA
VL: ELVMTQTPASLAVSLGQRATISCRASENVDKYGNSFMHWYQQKAGQPPKLLIYRASELQWGIPARFSGSGSRTDFTLTINPVEADDVATYFCQRSNEVPWTFGGGTKLEIKR
notes: also called 4E11-5A; E45A
With B3 the Kd [20] was 0.129 nM, the Kd [21] was 0.217 nM and the “FRNT50 (focus reduction neutralization test)” value [22] was 0.028 µg/mL. For the same binder, the “FRNT50 (focus reduction neutralization test)” value [23] was 0.19 µg/mL, the “FRNT50 (focus reduction neutralization test)” value [24] was 4 µg/mL and the “FRNT50 (focus reduction neutralization test)” value [25] was 0.77 µg/mL. For the same binder, the Kd [26] was 24.2 nM, the Kd [27] was under 0.3 nM and the Kd [28] was 0.368 nM. It also gave a Kd [29] of 2.72 nM.
